For assay [1], the target named is T1, Aβ oligomers prepared from Amyloid β-protein, Human 1-42 peptide (human, UniProt P05067 672-713).
T1 construct: domain: Amyloid β-protein 1-42; Oligomeric preparation (HFIP, DMSO, acetic acid solution pH 4.5, overnight at 4 °C); Amine-coupled to a CM5 chip; also called amyloid β oligomer
The experiment in a line: SPR (Biacore T100), Aβ oligomers amine-coupled to CM5 chip, antibody injected, Bivalent Analyte model (kd1). On the procedure: (§1) All the following operations were performed using Biocore T100 (manufactured by GE Healthcare Bio-sciences). The Aβ oligomers obtained in (1) of Example 2 were immobilized to the CM5 sensor chip (GE Healthcare Bio-sciences) using the amine coupling method.
(§2) Onto the chip to which the Aβ oligomers were immobilized for measurement samples prepared to have 8 levels of density by diluting from 30 μg/mL by doubling dilution in a stepwise manner (HV0LV0, HV5aLV0, HV5aLV1b, HV5aLV3, HV6LV0, HV6LV1b, and HV6LV3) was sequentially injected and measured in the order from the lower density based on the automatic program of the multi-kinetics.
(§3) Using the analysis software attached to the device, Biacore T100 Evaluation software (manufactured by Biacore Life Science), analysis was carried out with the Bivalent Analyte model to calculate the binding rate constant ka and the dissociation rate constant kd of each of the antibody against Aβ oligomers.
Background: SPR reads the build-up and loss of mass on a sensor chip optically.

The target in assay [2] is T1, Aβ oligomers prepared from Amyloid …. The assay can be described thus: SPR (Biacore T100), Aβ oligomers amine-coupled to CM5 chip, antibody injected, Bivalent Analyte model (kd1/ka1). As to the method: as §1, §2, §3
Assay [3] has as its target T2, Aβ monomers prepared from Biotin-beta-Amyloid, Human 1-40 (human, UniProt P05067 672-711, biotin (Biotin-beta-Amyloid; position of the biotin not stated)).
T2 construct: domain: beta-Amyloid 1-40; captured through biotin on an SA sensor chip; also called amyloid β protein monomer
The experiment in a line: SPR (Biacore T100), biotin-Aβ1-40 monomers captured on SA chip, antibody injected. On the procedure: In order to analyze the binding activity of the respective anti-Aβ oligomer humanized antibodies (HV0LV0, HV5aLV0, HV5aLV1b, HV5aLV3, HV6LV0, HV6LV1b, and HV6LV3) against Aβ monomers, the binding activity was measured in the same manner as in (1) of this Example. In addition, the binding activity of anti-Aβ antibody 6E10 (manufactured by CONVANCE) was measured as a control antibody.
The Aβ monomers obtained in (2) of Example (2) were immobilized to the SA sensor chip (manufactured by GE Healthcare Bio-sciences) by the biotin capturing method. Onto the chip to which the Aβ monomers were immobilized, samples for measurement, which were prepared to have 5 levels of density by diluting from 30 μg/mL by doubling dilution in a stepwise manner (HV0LV0, HV5aLV0, HV5aLV1b, HV5aLV3, HV6LV0, HV6LV1b, and HV6LV3) were sequentially injected and measured in the order from the lower density based on the automatic program of the multi-kinetics mode.

Assay [4] concerns the target T1, Aβ oligomers prepared from Amyloid …. The experiment in a line: SPR (Biacore T100), Aβ oligomers amine-coupled to CM5 chip, antibody injected, Bivalent Analyte model (ka1). On the procedure:
as §1, §2, §3

The results in this text go back to patent US20120009180A1 (Kyowa Kirin, published 2012).

T1 sequence (P05067 672-713 limits assumed): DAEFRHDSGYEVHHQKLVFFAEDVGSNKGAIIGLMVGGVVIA
T2 sequence (P05067 672-711 limits assumed): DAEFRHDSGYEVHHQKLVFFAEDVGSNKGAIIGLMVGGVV

B1: anti-Aβ oligomer humanized antibody HV0LV0 (antibody, V domains shown)
VH: DVQLVESGGGVVQPGRSLRLSCAASGFTFSSFGMHWVRQAPGKGLQWMVYISSGSSTIYYADTVKGRFTISRDNSRSTLFLQMNSLRGEDTAVYYCARTGTRAYWGQGTLVTVSS
VL: DIVMTQSPLSLPVTPGEPASISCRSSQSIVHSNGNTYLEWYLQKPGQSPQLLIYKVSNRFSGVPDRFSGSGSGTDFTLKISRVEAEDVGVYYCFQGSHVPPTFGQGTKLEIK
notes: purified on Prosep vA; also called HV0LVV0; 4H5HV0 + 4H5LV0
As a reminder, the koff is a measure of how fast the partners let go of each other. Read a low koff as slow dissociation. Broadly, the kon is the rate constant with which the complex forms. A high value points to faster complex formation. In turn, B1 registered an off-rate constant (koff) in assay [1] of 0.0014 s⁻¹. The molecule also registered a Kd in assay [2] of 100 nM. The binding result in assay [3] is recorded as “no binding”. This molecule had a kon in assay [4] of 14000 M⁻¹ s⁻¹.

B2: anti-Aβ oligomer humanized antibody HV6LV3 (antibody, V domains shown)
VH: DVQLVESGGGVVQPGRSLRLSCAASGFTFSSFGMHWVRQAPGKGLEWVAYISSGSSTIYYADTVKGRFTISRDNSRNTLFLQMNSLRGEDTAMYYCAGTGTRAYWGQGTLVTVSS
VL: DVVMTQSPLSLPVTLGEPASISCRSSQSIVHSNGNTYLEWYLQKPGQSPKLLIYKVSNRFSGVPDRFSGSGSGTDFTLKISRVEAEDVGVYYCFQGSHVPPTFGQGTKLEIK
The molecule B2 yielded a koff in assay [1] of 0.00092 s⁻¹. The same molecule registered a Kd in assay [2] of 110 nM. Moreover, the binding result in assay [3] was “no binding”. In addition, in assay [4], the kon was determined as 8200 M⁻¹ s⁻¹.

B3: anti-Aβ oligomer humanized antibody HV5aLV1b (antibody, V domains shown)
VH: DVQLVESGGGVVQPGRSLRLSCAASGFTFSSFGMHWVRQAPGKGLEWVAYISSGSSTIYYADTVKGRFTISRDNSRSTLFLQMNSLRGEDTAMYYCAGTGTRAYWGQGTLVTVSS
VL: DIVMTQSPLSLPVTLGEPASISCRSSQSIVHSNGNTYLEWYLQKPGQSPQLLIYKVSNRFSGVPDRFSGSGSGTDFTLKISRVEAEDVGVYYCFQGSHVPPTFGQGTKLEIK
In assay [1], B3 displayed a koff of 0.00088 s⁻¹. In assay [2], the Kd turned out to be 90 nM. In addition, the binding result in assay [3] is “no binding”. In addition, the kon in assay [4] is 9800 M⁻¹ s⁻¹.

B4: anti-Aβ oligomer humanized antibody HV5aLV0 (antibody, V domains shown)
VH: DVQLVESGGGVVQPGRSLRLSCAASGFTFSSFGMHWVRQAPGKGLEWVAYISSGSSTIYYADTVKGRFTISRDNSRSTLFLQMNSLRGEDTAMYYCAGTGTRAYWGQGTLVTVSS
VL: DIVMTQSPLSLPVTPGEPASISCRSSQSIVHSNGNTYLEWYLQKPGQSPQLLIYKVSNRFSGVPDRFSGSGSGTDFTLKISRVEAEDVGVYYCFQGSHVPPTFGQGTKLEIK
notes: also called HV5aVL0
The molecule B4 returned a koff in assay [1] of 0.00063 s⁻¹. For the same molecule, the Kd in assay [2] stood at 55 nM. For the same molecule, in assay [3], the binding result is “no binding”. This molecule also gave a kon in assay [4] of 11000 M⁻¹ s⁻¹.
